Assay results reported in PMC2148128.

Legend:
[1] = target: Crn1p (coronin1p), full-length recombinant (amino acids 1–651) (S. cerevisiae) (UniProt Q06440); experiment: co-sedimentation
[2] = target: taxol-stabilized bovine brain microtubules (tubulin) (bovine) (UniProt Q6B856); experiment: co-sedimentation

Kd [1] | Kd [2] | percent of Crn1p bound at 2 μM microtubules [2] | percent of Crn1p bound at 10 μM microtubules [2] | Molecule
2 µM |  |  |  | taxol-stabilized bovine brain microtubules (tubulin) (from UniProt Q6B856 1-445) (complex)
 | 15 to 20 µM | 20% | 40% | Crn1p (coronin1p), full-length recombinant (amino acids 1–651) (natural protein) MSGKFVRASKYRHVFGQAAKKELQYEKLKVTNNAWDSNLLKTNGKFIAVNWNASGGGAFAVIPIEEVGKAPDQVPLFRGHTAQVLDTDFDPFNDHRIASGSDDSKIGIWDIPENYKFHDHVDEDGEPIDIKPVKFLTGHARKVGHVLYHPVAENVLASSSGDYTVKLWNVETGKDMITLKHPDMVTSMSFSYDGNYLATVARDKKLRVWNIREEKIVSEGPAHTGAKNQRVVWLGNSDRLATTGFSKLSDRQIGIWDAFNIEKGDLGGFYTVDQSSGILMPFYDEGNKILYLVGKGDGNIRYYEFQNDELFELSEFQSTEAQRGFAVAPKRMVNVKENEVLKGFKTVVDQRIEPVSFFVPRRSEEFQEDIYPDAPSNKPALTAEEWFSGKSVEGPILVSMRSIYDGSAPSFHEAKRPQQPTTQETALEEKKEQPKVEKPISESEKEVKQEAPKSPSPLKSASSSSTINHVLKEDNSINKLLKKSSDIDQVNNAEDPSRDTSGWEEADDEPAPIKIETPVTPTETKKDRTPKVEPSKELKPEPVSIATDRKQEQSLPQEEKSSEKTKSPEQEKSATPPSSITAAKTAITASSKEEPSAARTSPKSLGLKKSVEKLSTLVLQLEDVVDKLTKANLDKDERLLKLEQKIGELSK
